EP2843044A1, “Improved variant of D-psicose 3-epimerase and uses thereof” (Roquette Frères, priority 2013, dated 2015)

B1: D-psicose 3-epimerase (DPEase) from Clostridium cellulolyticum, variant G211S, SEQ ID No 4 (Ruminiclostridium cellulolyticum H10; G211S) (protein)
chain: MKHGIYYAYWEQEWEADYKYYIEKVAKLGFDILEIAASPLPFYSDIQINELKACAHGNGITLTVGHGPSAEQNLSSPDPDIRKNAKAFYTDLLKRLYKLDVHLIGGALYSYWPIDYTKTIDKKGDWERSVESVREVAKVAEACGVDFCLEVLNRFENYLINTAQEGVDFVKQVDHNNVKVMLDTFHMNIEEDSIGGAIRTAGSYLGHLHTSECNRKVPGRGRIPWVEIGEALADIGYNGSVVMEPFVRMGGTVGSNIKVWRDISNGADEKMLDREAQAALDFSRYVLECHKHS
notes: made in house; host or cells: Bacillus subtilis WB600 (pMA5)
B2: D-psicose 3-epimerase (DPEase) from Clostridium cellulolyticum, variant G211L (Ruminiclostridium cellulolyticum H10; G211L) (protein)
chain: MKHGIYYAYWEQEWEADYKYYIEKVAKLGFDILEIAASPLPFYSDIQINELKACAHGNGITLTVGHGPSAEQNLSSPDPDIRKNAKAFYTDLLKRLYKLDVHLIGGALYSYWPIDYTKTIDKKGDWERSVESVREVAKVAEACGVDFCLEVLNRFENYLINTAQEGVDFVKQVDHNNVKVMLDTFHMNIEEDSIGGAIRTAGSYLGHLHTLECNRKVPGRGRIPWVEIGEALADIGYNGSVVMEPFVRMGGTVGSNIKVWRDISNGADEKMLDREAQAALDFSRYVLECHKHS
notes: as for B1
B3: D-psicose 3-epimerase (DPEase) from Clostridium cellulolyticum, variant G211D (Ruminiclostridium cellulolyticum H10; G211D) (protein)
chain: MKHGIYYAYWEQEWEADYKYYIEKVAKLGFDILEIAASPLPFYSDIQINELKACAHGNGITLTVGHGPSAEQNLSSPDPDIRKNAKAFYTDLLKRLYKLDVHLIGGALYSYWPIDYTKTIDKKGDWERSVESVREVAKVAEACGVDFCLEVLNRFENYLINTAQEGVDFVKQVDHNNVKVMLDTFHMNIEEDSIGGAIRTAGSYLGHLHTDECNRKVPGRGRIPWVEIGEALADIGYNGSVVMEPFVRMGGTVGSNIKVWRDISNGADEKMLDREAQAALDFSRYVLECHKHS
notes: as for B1
B4: D-psicose 3-epimerase (DPEase) from Clostridium cellulolyticum, variant G211W (Ruminiclostridium cellulolyticum H10; G211W) (protein)
chain: MKHGIYYAYWEQEWEADYKYYIEKVAKLGFDILEIAASPLPFYSDIQINELKACAHGNGITLTVGHGPSAEQNLSSPDPDIRKNAKAFYTDLLKRLYKLDVHLIGGALYSYWPIDYTKTIDKKGDWERSVESVREVAKVAEACGVDFCLEVLNRFENYLINTAQEGVDFVKQVDHNNVKVMLDTFHMNIEEDSIGGAIRTAGSYLGHLHTWECNRKVPGRGRIPWVEIGEALADIGYNGSVVMEPFVRMGGTVGSNIKVWRDISNGADEKMLDREAQAALDFSRYVLECHKHS
notes: as for B1
B5: D-psicose 3-epimerase (DPEase) from Clostridium cellulolyticum, wild type, SEQ ID No 2 (Ruminiclostridium cellulolyticum H10) (protein)
chain: MKHGIYYAYWEQEWEADYKYYIEKVAKLGFDILEIAASPLPFYSDIQINELKACAHGNGITLTVGHGPSAEQNLSSPDPDIRKNAKAFYTDLLKRLYKLDVHLIGGALYSYWPIDYTKTIDKKGDWERSVESVREVAKVAEACGVDFCLEVLNRFENYLINTAQEGVDFVKQVDHNNVKVMLDTFHMNIEEDSIGGAIRTAGSYLGHLHTGECNRKVPGRGRIPWVEIGEALADIGYNGSVVMEPFVRMGGTVGSNIKVWRDISNGADEKMLDREAQAALDFSRYVLECHKHS
notes: as for B1
B6: D-psicose 3-epimerase (DPEase) from Clostridium cellulolyticum, variant G211A (Ruminiclostridium cellulolyticum H10; G211A) (protein)
chain: MKHGIYYAYWEQEWEADYKYYIEKVAKLGFDILEIAASPLPFYSDIQINELKACAHGNGITLTVGHGPSAEQNLSSPDPDIRKNAKAFYTDLLKRLYKLDVHLIGGALYSYWPIDYTKTIDKKGDWERSVESVREVAKVAEACGVDFCLEVLNRFENYLINTAQEGVDFVKQVDHNNVKVMLDTFHMNIEEDSIGGAIRTAGSYLGHLHTAECNRKVPGRGRIPWVEIGEALADIGYNGSVVMEPFVRMGGTVGSNIKVWRDISNGADEKMLDREAQAALDFSRYVLECHKHS
notes: as for B1
B7: D-psicose 3-epimerase (DPEase) from Clostridium cellulolyticum, variant G211R (Ruminiclostridium cellulolyticum H10; G211R) (protein)
chain: MKHGIYYAYWEQEWEADYKYYIEKVAKLGFDILEIAASPLPFYSDIQINELKACAHGNGITLTVGHGPSAEQNLSSPDPDIRKNAKAFYTDLLKRLYKLDVHLIGGALYSYWPIDYTKTIDKKGDWERSVESVREVAKVAEACGVDFCLEVLNRFENYLINTAQEGVDFVKQVDHNNVKVMLDTFHMNIEEDSIGGAIRTAGSYLGHLHTRECNRKVPGRGRIPWVEIGEALADIGYNGSVVMEPFVRMGGTVGSNIKVWRDISNGADEKMLDREAQAALDFSRYVLECHKHS
notes: made in house

Substrate: O=C(CO)[C@@H](O)[C@H](O)[C@H](O)CO
Experiment: Determination of kinetic parameters of DPEase (HPLC assay of D-psicose formed)
Format: biochemical, Clostridium cellulolyticum
Details: other: 50 mM Tris-HCl buffer (pH 8.0), 0.1mM Co^2+, 5-200mM substrate, 55 °C
Experimental: Kinetic parameters of DPEase variants were determined in 50 mM Tris-HCl buffer (pH 8.0) containing 0.1mM Co^2+ and 5-200mM substrate for reaction at 55 °C. The enzyme reactions were stopped after 10 min by boiling, and the amount of D-psicose was determined by the HPLC assay. Kinetic parameters, such as the Michaelis-Menten constant (Km) and turnover number (kcat) values for substrates, were obtained using the Lineweaver-Burk equation and quantification of enzyme concentration.
The concentrations of D-fructose and D-psicose were analyzed by HPLC equipped with a refractive index detector and a Ca^2+-carbohydrate column (Waters Sugar-Pak 1, Waters Corp., Milford, MA), which was eluted with water at 85 °C and 0.4 mL/min. Protein concentration was determined according to the method of Bradford using bovine serum albumin as a standard. SDS-PAGE was carried out according to the method of Laemmli. Gels (12% w/v polyacrylamide) were stained with Coomassie Brilliant Blue and destained with an aqueous mixture of 10% (v/v) methanol/10% (v/v) acetic acid. Table 1: Enzyme properties and kinetic parameters of the wild-type and mutant enzymes of DPEase from C. cellulolyticum for substrate D-psicose

Protein | kcat/Km [mM^-1 min ^-1]
B1 | 150.6
B2 | 73.2
B3 | 86.7
B4 | 68.1
B5 | 62.7
B6 | 9.8
B7 | 26.5
